Literature values as cited in paper PMC4769028.

Target: CusA (Escherichia coli) (UniProt P38054)
Assay: ITC

UniProt P38054, sequence (P38054 whole entry): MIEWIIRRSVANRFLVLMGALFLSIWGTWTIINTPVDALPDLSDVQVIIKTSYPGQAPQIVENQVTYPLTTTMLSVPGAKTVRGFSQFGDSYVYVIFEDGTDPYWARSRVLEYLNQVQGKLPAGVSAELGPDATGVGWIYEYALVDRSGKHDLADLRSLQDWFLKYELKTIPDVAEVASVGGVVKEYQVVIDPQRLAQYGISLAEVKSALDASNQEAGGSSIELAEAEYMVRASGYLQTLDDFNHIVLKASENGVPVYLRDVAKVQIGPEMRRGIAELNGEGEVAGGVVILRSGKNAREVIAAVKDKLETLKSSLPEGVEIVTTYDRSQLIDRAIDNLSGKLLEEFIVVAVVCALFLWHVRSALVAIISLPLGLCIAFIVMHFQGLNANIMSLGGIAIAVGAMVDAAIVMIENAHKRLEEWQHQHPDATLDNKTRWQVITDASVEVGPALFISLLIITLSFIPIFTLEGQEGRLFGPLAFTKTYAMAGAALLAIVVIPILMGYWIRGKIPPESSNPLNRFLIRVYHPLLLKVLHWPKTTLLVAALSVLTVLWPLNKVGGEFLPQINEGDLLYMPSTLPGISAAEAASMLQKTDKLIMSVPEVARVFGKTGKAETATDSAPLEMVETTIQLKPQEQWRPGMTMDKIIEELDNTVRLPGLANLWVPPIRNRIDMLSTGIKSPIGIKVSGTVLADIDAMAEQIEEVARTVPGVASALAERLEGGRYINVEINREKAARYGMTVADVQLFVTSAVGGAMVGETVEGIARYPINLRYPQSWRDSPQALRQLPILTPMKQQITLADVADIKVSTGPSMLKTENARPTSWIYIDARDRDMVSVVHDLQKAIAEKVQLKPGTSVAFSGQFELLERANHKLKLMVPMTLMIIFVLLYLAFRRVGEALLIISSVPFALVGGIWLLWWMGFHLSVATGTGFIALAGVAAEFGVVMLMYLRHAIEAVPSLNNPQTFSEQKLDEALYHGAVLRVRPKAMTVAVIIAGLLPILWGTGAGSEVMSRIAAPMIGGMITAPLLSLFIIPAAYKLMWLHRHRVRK

CusB (from UniProt P77239)
Kd: 5.1 µM
